From patent publication US11479601B2, “Antibodies specific to Sonic Hedgehog and method of use thereof” (The Regents of the University of California, priority 2016, dated 2022)
Where “and” joins values, the source holds several entries; their conditions need not be identical. Identical values can stand only once.

Experiments:
[1] = test system: A549-derived NSCLC xenografts; experiment: Antitumor efficacy in NSCLC A549 xenograft model (8 mg/kg); format: in vivo, mice; details: 3 times a week for 3 weeks, versus control IgG
Protocol: 7-week old female nude mice (Jackson Laboratories) were injected with 10×10^6 NSCLC A549 cells in 50% matrigel in the flank region. […] 8 mg/kg therapeutic or control antibodies were administered three times a week for approximately 3 weeks. Tumor volumes were calculated using the formula (V=L×W^2) with recorded caliper measurements. At the end point, tumors were harvested, weighed and imaged. All animal procedures were performed under IACUC-approved protocols and guidelines.

[2] = target: T1, cell-surface Sonic Hedgehog on A549 cells (Homo sapiens, UniProt Q15465); experiment: FACS of non-permeabilized A549 cells labeled with anti-Shh antibodies; format: binding; details: A549, without membrane permeabilization
T1 construct: recognize cell-surface expression of Sonic Hedgehog, A549 cells were labeled with in-house antibodies; endogenous in cells; host or cells: A549
Protocol: A549, 293T or 293T (+pCMV Shh) cells were labeled with Sonic Hedgehog (Shh) antibody (Abcam 53281, 1:100) or therapeutic test antibodies (1:100) for 1 hour at RT post serum blocking. Following two PBS washes, a FITC-conjugated secondary antibody (Abcam 97029, 1:100) or an Alexa-Fluor 647 (Invitrogen, 1:1000) was used to label cells. Samples were screened by flow cytometry using an Accuri™ C6 machine (BD Biosciences). For fluorescence activated cell sorting, samples were sorted using an S3e™ Cell Sorter (Bio-Rad) and the Shh+ population was collected. For all experiments, cells processed without primary antibody served as a negative control. Experiments were performed in duplicates or triplicates.
To corroborate that the two anti-Shh antibodies, 1C11-2G4 and 1C11-2D9, recognize cell-surface expression of Sonic Hedgehog, A549 cells were labeled with in-house antibodies and sorted via Fluorescence Activated Cell Sorting (FACS) without membrane permeabilization. […] BMC Cancer. 15:84 (2015); Singh S, Trevino J, Bora-Singhal N, Coppola D, Haura E, Altiok S, Chellappan S P. EGFR/Src/Akt signaling modulates Sox2 expression and self-renewal of stem-like side-population cells in non-small cell lung cancer. Mol Cancer. 11:73 (2012); Cochrane C R, Szczepny A, Watkins D N, Cain J E. Hedgehog Signaling in the Maintenance of Cancer Stem Cells. Cancers (Basel). […]

[3] = test system: A549 cell subcutaneous xenograft tumor; experiment: A549 subcutaneous xenograft, intra-tumor injection of C-terminal Shh antibody; format: in vivo, mice
Protocol: For xenograft formation, female nude mice, 5 to 10 weeks old, were injected subcutaneously (SC) with 10 million A549 cells in the dorsal area in a volume of […]. For SC inoculation of sorted cells, 1,500 cells of A549 Shh+ or Shh− cells were injected in a volume of […]. For intra-veinous injection of sorted cells, 1,000 cells of A549 Shh+ or Shh− cells were injected in the tail vein. For the in vivo treatment assay, after xenograft formation, animals were injected intravenously with cisplatin (10 mg/kg weekly), docetaxel (10 mg/kg twice a week) or vehicle, and intraperitoneally with GDC0449 (20 mg/kg daily) or vehicle. Each group consisted in 4-5 mice. Tumor size was determined twice a week, and tumor volumes were calculated using width (x) and length (y) (x^2y/2, where x<y). Tumors were collected after mice euthanasia, and cell dissociation was performed as for fresh human samples (cf supra). Flow cytometry and FACS were done as described supra. All animals were cared in accord with University of California San Francisco (UCSF) guidelines.
The in vivo effect of the C-terminal Shh antibodies were tested using the A549 cell subcutaneous xenograft tumor model in mice, as described in Example 1. After xenograft formation, animals were intra-tumor injected with a C terminal Shh antibody (2G4 or 2D9; each at 158 μg), or a control solution, 3 times a week for about 3 weeks (at 2-3 day intervals). Tumor volume was determined, as described in Example 1, every 2 days. Weight and size of the excised tumor were determined after the antibody treatment. A portion of the excised tumor was sectioned for immunohistochemical analysis of Shh protein expression, and RNA was extracted from another portion of the excised tumor for analysis of Gli1 expression.

B1: 2G4: purified mouse monoclonal C-terminal Shh antibody from hybridoma sub-clone 2G4 of clone 1C11, IgG1 kappa (antibody, V domains shown)
VH: EVKLVESGGGLVKPGGSLKLSCAASGFTFSSYTMSWVRQTPAKRLEWVATISSGGGNTYYPDSVKGRFTISRDNARNTLYLQMSSLRSEDTAMYYCARDYRSLFAYWGQGTLVTVSA
VL: QIVLTQSPAIMSASPGEKVTITCSASSSVSYMHWFQQKPGTSPKLWIYSTSNLASGVPARFSGSGSGTSYSLTISRMEAEDAATYYCQQRSSYPFTFGSGTKLEIK
Q: For B1, which tumor volume [1] is on record?
A: significant reduction in tumor volume

Q: And the “tumor weight of harvested tumors” value [1]?
A: decrease in tumor weight

Q: What about the “Shh+ cells recognized from a mixed population (FACS)” value [2] of the same molecule?
A: 0.11%

Q: And the “Average % change in tumor volume, relative to day −2” value ([3]; Day 0)?
A: 104.50%

Q: What about the “Average change in tumor volume” value ([3]; Day 0, 158 μg intra-tumor 3 times a week) of the same molecule?
A: 14.6 mm^3

Q: And the “Average % change in tumor volume, relative to day −2” value ([3]; Day 2)?
A: 90.20%

Q: What about the “Average change in tumor volume” value ([3]; Day 2) of the same molecule?
A: −21.7 mm^3

Q: What about the “Average % change in tumor volume, relative to day −2” value ([3]; Day 5) of the same molecule?
A: 103.10%

Q: What about the “Average change in tumor volume” value ([3]; Day 5) of the same molecule?
A: 15.3 mm^3

Q: What about the “Average % change in tumor volume, relative to day −2” value ([3]; Day 7) of the same molecule?
A: 105.80%

Q: What about the “Average change in tumor volume” value ([3]; Day 7) of the same molecule?
A: 33.5 mm^3

Q: What about the “Average % change in tumor volume, relative to day −2” value ([3]; Day 12) of the same molecule?
A: 121.90%

Q: What about the “Average change in tumor volume” value ([3]; Day 12) of the same molecule?
A: 103 mm^3

Q: What about the “Average % change in tumor volume, relative to day −2” value ([3]; Day 14) of the same molecule?
A: 137.70%

Q: What about the “Average change in tumor volume” value ([3]; Day 14) of the same molecule?
A: 138.2 mm^3

Q: What about the “Average % change in tumor volume, relative to day −2” value ([3]; Day 16) of the same molecule?
A: 148%

Q: What about the “Average change in tumor volume” value ([3]; Day 16) of the same molecule?
A: 174.04 mm^3

Q: And the “Average % change in tumor volume, relative to day −2” value ([3]; Day 19)?
A: 189.60%

Q: What about the “Average change in tumor volume” value ([3]; Day 19) of the same molecule?
A: 277.7 mm^3

Q: And the “Average % change in tumor volume, relative to day −2” value ([3]; Day 21)?
A: 202.40%

Q: And the “Average change in tumor volume” value ([3]; Day 21)?
A: 337.8 mm^3

Q: And the “Average % change in tumor volume, relative to day −2” value ([3]; Day −2)?
A: 100%

Q: And the “Weight of tumor after treatment, AVG” value ([3]; average of 3 animals)?
A: 0.0644

Q: What about the “Weight of tumor after treatment” value ([3]; individual animals) of the same molecule?
A: 0.048 and 0.0966 and 0.0486
